52 sequences from the supplement of paper PMC10567573 can be followed below.

The data set can be described thus: protein stability index of a GFP-peptide fusion (GPS, HEK-293T) (PSI 1-6); higher = more stable. The conditions noted are these: c terminus: a fixed tail appended.

± gives the standard deviation.
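Further: 24-mer peptide tiles fused after GFP, lentivirally expressed, FACS-sorted into six equal bins by GFP/DsRed ratio, decoded by Illumina sequencing, PSI is the read-weighted mean bin number.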

For the sequence SFWNDCISSGLRGCMLIELALRGR [GOLPH3], the protein stability index runs as follows: (treatment: DMSO) 2.71 ± 0.35; (treatment: MLN4924 1 uM, 8 h) 2.66 ± 0.75.

SGAEGHSHSCYHDTRSGFWYVCRT [TRIM35]: the protein stability index reads like this: (treatment: DMSO) 2.45 ± 0.17; (treatment: MLN4924 1 uM, 8 h) 2.64 ± 0.24.

On to SGATTTAPSLSGKGNPEEEDVDTS [CTNNB1], for which the protein stability index worked out at 5.61 ± 0.31 (treatment: DMSO) and 5.62 ± 0.17 (treatment: MLN4924 1 uM, 8 h).

Regarding SGFSARERLERAVSDRLAPGAPRG [MYCL], the protein stability index came to 4.13 ± 0.3 (treatment: DMSO) and 4.16 ± 0.2 (treatment: MLN4924 1 uM, 8 h).

As to SGGYGQDALGMDPMMEHEMGGHHP [CTNNB1], the protein stability index runs as follows: (treatment: DMSO) 4.65 ± 0.18; (treatment: MLN4924 1 uM, 8 h) 4.69 ± 0.23.

As to SGLDDFFLDIDTSAVEKEPARAPP [SERTAD3], the protein stability index is, setting by setting: (treatment: DMSO) 4.71 ± 0.24; (treatment: MLN4924 1 uM, 8 h) 4.75 ± 0.31.

In the case of SGRPHLPGKKKIRWDPVRRRFIQS [KLHDC10], the protein stability index came to 3.35 ± 0.26 (treatment: DMSO) and 3.21 ± 0.4 (treatment: MLN4924 1 uM, 8 h).

SIGDIESCKLVRDKITGQSLGYGF [ELAVL3]: the protein stability index turned out to be 2.72 ± 0.21 (treatment: DMSO) and 2.55 ± 0.17 (treatment: MLN4924 1 uM, 8 h).

For the sequence SILNSCEDPVPGMLFFLPPGQHLS [FBXO34], the protein stability index by setting is: (treatment: DMSO) 2.46 ± 0.2; (treatment: MLN4924 1 uM, 8 h) 2.41 ± 0.22.

As to SKRMTFQMPKFDLGPLLSEPLVLY [MYOZ1], the protein stability index is 2.36 ± 0.39 (treatment: DMSO) and 2.26 ± 0.28 (treatment: MLN4924 1 uM, 8 h).

Take SKVIEILDSQTEIYQYVQNSMAPH [DLC1]: the protein stability index is, setting by setting: (treatment: DMSO) 2.6 ± 0.3; (treatment: MLN4924 1 uM, 8 h) 2.71 ± 0.28.

Consider SLAHCRHDGEDVACPQGGVQYGAG [LOXL2], for which the protein stability index runs as follows: (treatment: DMSO) 4.65 ± 0.5; (treatment: MLN4924 1 uM, 8 h) 3.96 ± 0.41.

Regarding SLDKVQRSLGPRAPSLRRHVLIHN [SERTAD3], the protein stability index runs as follows: (treatment: DMSO) 3.02 ± 0.32; (treatment: MLN4924 1 uM, 8 h) 2.96 ± 0.29.

On to SLLSKARGIDSSSVKLRGSSLFMD [WEE1], for which the protein stability index reads like this: (treatment: DMSO) 2.75 ± 0.2; (treatment: MLN4924 1 uM, 8 h) 2.49 ± 0.19.

For the sequence SLPQNQCYMATTKSQTACLPFVLA [EHMT1], the protein stability index by setting is: (treatment: DMSO) 2.35 ± 0.08; (treatment: MLN4924 1 uM, 8 h) 2.23 ± 0.15.

SLTDSVNHHSPGGSSDASGSYSST [ESRRG]: the protein stability index reads like this: (treatment: DMSO) 4.99 ± 0.28; (treatment: MLN4924 1 uM, 8 h) 5.1 ± 0.15.

In turn, SMTAGVSEREANDALNAYVCKGLP [INTS3] showed a protein stability index (treatment: DMSO) of 4.37 ± 0.16 and a protein stability index (treatment: MLN4924 1 uM, 8 h) of 4.38 ± 0.14.

With SMVPPSPAMAASKALGSDLDSSLA [SNAP91], the protein stability index is, setting by setting: (treatment: DMSO) 4.59 ± 0.097; (treatment: MLN4924 1 uM, 8 h) 4.6 ± 0.26.

The sequence SNLQAMSTQMFQTKRCFRLAPTFS [SMG5] came in with a protein stability index (treatment: DMSO) of 2.17 ± 0.36 and a protein stability index (treatment: MLN4924 1 uM, 8 h) of 2.2 ± 0.14.

In the case of SNTGSESNSATVEEPPTDPIPEDE [SMARCE1], the protein stability index is, setting by setting: (treatment: DMSO) 5.48 ± 0.45; (treatment: MLN4924 1 uM, 8 h) 5.33 ± 0.51.

SPEQQFDRSVQRLLATRIAVYLMT [TMEM175]: the protein stability index runs as follows: (treatment: DMSO) 2.31 ± 0.51; (treatment: MLN4924 1 uM, 8 h) 2.43 ± 0.66.

Sequence SPEVESLPVASSSTLLPLAPSNST [NFE2L1] returned a protein stability index (treatment: DMSO) of 5.04 ± 0.23 and a protein stability index (treatment: MLN4924 1 uM, 8 h) of 5.27 ± 0.13.

Regarding SPKGTLPPAALESSDSANTTIEDE [CAMK2B], the protein stability index runs as follows: (treatment: DMSO) 5.64 ± 0.16; (treatment: MLN4924 1 uM, 8 h) 5.54 ± 0.29.

As for SPNLNVVDGRLTYPTCGIGYPVSS [SASS6], the protein stability index runs as follows: (treatment: DMSO) 3.06 ± 0.44; (treatment: MLN4924 1 uM, 8 h) 3.14 ± 0.4.

With SPRSTSVTTTSSASVTTTSNASGR [KRT13], the protein stability index is, setting by setting: (treatment: DMSO) 5.31 ± 0.2; (treatment: MLN4924 1 uM, 8 h) 5.32 ± 0.12.

Regarding SPSHKGIAAPHAGANVKPRNSTPP [ZC2HC1A], the protein stability index came to 4.92 ± 0.092 (treatment: DMSO) and 4.86 ± 0.54 (treatment: MLN4924 1 uM, 8 h).

In the case of SPSSDRVSAIIWEGNECKKMDMSV [PHTF1], the protein stability index (treatment: DMSO) stood at 3.6 ± 0.26 and the protein stability index (treatment: MLN4924 1 uM, 8 h) worked out at 3.73 ± 0.43.

Sequence SPWADGTPCGPAQACMGGRCLHMD [ADAMTS4] showed a protein stability index (treatment: DMSO) of 4.28 ± 0.21 and a protein stability index (treatment: MLN4924 1 uM, 8 h) of 4.47 ± 0.36.

As to SQIQGLIGSVEEQLAQLRCEMEQQ [KRT16], the protein stability index is, setting by setting: (treatment: DMSO) 4.387 ± 0.042; (treatment: MLN4924 1 uM, 8 h) 4.52 ± 0.28.

Consider SQMVSTDNSLSSQNYISQKEDASE [MIA2], for which the protein stability index came out at 5.29 ± 0.44 (treatment: DMSO) and 5.21 ± 0.26 (treatment: MLN4924 1 uM, 8 h).

Consider SQPLDREATSHYIIELLASDAGSP [PCDHGC5], for which the protein stability index (treatment: DMSO) stood at 3.33 ± 0.27 and the protein stability index (treatment: MLN4924 1 uM, 8 h) stood at 3.52 ± 0.2.

SRRYTEMALPFFSLAEVRVGYQSQ [MYORG]: the protein stability index turned out to be 2.3 ± 0.16 (treatment: DMSO) and 2.29 ± 0.039 (treatment: MLN4924 1 uM, 8 h).

SRSHDRLPYQRRYRERRDSDTYRC [CLK3]: the protein stability index reads like this: (treatment: DMSO) 4.09 ± 0.27; (treatment: MLN4924 1 uM, 8 h) 4.24 ± 0.36.

Regarding SRVTASSGITIPKPPKPPDKPLMP [SMARCE1], the protein stability index reads like this: (treatment: DMSO) 3.78 ± 0.25; (treatment: MLN4924 1 uM, 8 h) 3.94 ± 0.18.

Regarding SSAPDLMCLSPDRKMEVEELSPLA [CDC25B], the protein stability index by setting is: (treatment: DMSO) 5 ± 0.37; (treatment: MLN4924 1 uM, 8 h) 5 ± 0.22.

As to SSGGSSGSSSDNRTYRYSNRYCGG [DYRK1B], the protein stability index is, setting by setting: (treatment: DMSO) 4.04 ± 0.23; (treatment: MLN4924 1 uM, 8 h) 4.07 ± 0.12.

SSKTITAEIPDGPPVVAHYDMSDT [C18orf25]: the protein stability index reads like this: (treatment: DMSO) 5.14 ± 0.14; (treatment: MLN4924 1 uM, 8 h) 4.96 ± 0.23.

As for SSRDKLTEMAASSQGNFEGNFESL [FUNDC2], the protein stability index (treatment: DMSO) worked out at 4.88 ± 0.28 and the protein stability index (treatment: MLN4924 1 uM, 8 h) is 5.03 ± 0.42.

SSRSTVPTPAKRRSSALWSEMLDI [NET1]: the protein stability index runs as follows: (treatment: DMSO) 2.62 ± 0.25; (treatment: MLN4924 1 uM, 8 h) 2.96 ± 0.46.

SSSSASADLLAGFGGSFMAPSPSP [SNAP91]: the protein stability index is, setting by setting: (treatment: DMSO) 4.24 ± 0.1; (treatment: MLN4924 1 uM, 8 h) 4.3 ± 0.24.

For SSSSSSSWLTRRAIRPENRAPGAG [EMD], the protein stability index runs as follows: (treatment: DMSO) 4.33 ± 0.25; (treatment: MLN4924 1 uM, 8 h) 4.16 ± 0.25.

For STRWEVIAEDGTKEIESQGSIPGF [TAF7L], the protein stability index worked out at 4.58 ± 0.067 (treatment: DMSO) and 4.54 ± 0.3 (treatment: MLN4924 1 uM, 8 h).

In the case of SYAFGKFPTVVWTWWIMFLSTFSV [SOAT1], the protein stability index reads like this: (treatment: DMSO) 2.98 ± 0.57; (treatment: MLN4924 1 uM, 8 h) 2.97 ± 0.29.

SYPVMGFEFQVRVCDSCYDSIKDE [WDFY1]: the protein stability index came to 2.76 ± 0.18 (treatment: DMSO) and 3.06 ± 0.39 (treatment: MLN4924 1 uM, 8 h).

With SYSRLCRESGAEPQEAVLQQLHQL [LRRC45], the protein stability index came out at 3.71 ± 0.29 (treatment: DMSO) and 3.71 ± 0.19 (treatment: MLN4924 1 uM, 8 h).

As for TAAASRERQEEQSAAIHISETLEQ [EPB41L3], the protein stability index (treatment: DMSO) came to 5.5 ± 0.061 and the protein stability index (treatment: MLN4924 1 uM, 8 h) worked out at 5.4 ± 0.52.

With TAHMLGVRELRIAFREFDRDRDGR [CABP4], the protein stability index is, setting by setting: (treatment: DMSO) 3.68 ± 0.34; (treatment: MLN4924 1 uM, 8 h) 3.7 ± 0.076.

The sequence TAKNSRVVCGMFGFPGERTYNTKV [LOXL2] registered a protein stability index (treatment: DMSO) of 2.6 ± 0.3 and a protein stability index (treatment: MLN4924 1 uM, 8 h) of 2.63 ± 0.067.

With TALLGGPRRCHSAPPQGSCGDELP [PLEKHN1], the protein stability index is, setting by setting: (treatment: DMSO) 4.1 ± 0.3; (treatment: MLN4924 1 uM, 8 h) 4.45 ± 0.47.

On to TAQHQRRLAAIAQEKDQEMERLRE [FBF1], for which the protein stability index reads like this: (treatment: DMSO) 5.36 ± 0.17; (treatment: MLN4924 1 uM, 8 h) 5.42 ± 0.14.

Turning to TARAHPAKARDLYKGRQLQGCPGA [SMOC2], the protein stability index (treatment: DMSO) came to 3.23 ± 0.64 and the protein stability index (treatment: MLN4924 1 uM, 8 h) is 4.41 ± 0.57.

Regarding TAYIRVKVDGPRSPSYGRSRSRSR [SRSF1], the protein stability index worked out at 3.75 ± 0.21 (treatment: DMSO) and 4 ± 0.29 (treatment: MLN4924 1 uM, 8 h).
